Laboratory results from US20240400677A1.

target: human SIRPα V1-His monomer protein (human) (UniProt P78324); assay: BLI Octet, V5-scFv PPE captured, SIRP-His 500 nM
Sequence (P78324 31-370): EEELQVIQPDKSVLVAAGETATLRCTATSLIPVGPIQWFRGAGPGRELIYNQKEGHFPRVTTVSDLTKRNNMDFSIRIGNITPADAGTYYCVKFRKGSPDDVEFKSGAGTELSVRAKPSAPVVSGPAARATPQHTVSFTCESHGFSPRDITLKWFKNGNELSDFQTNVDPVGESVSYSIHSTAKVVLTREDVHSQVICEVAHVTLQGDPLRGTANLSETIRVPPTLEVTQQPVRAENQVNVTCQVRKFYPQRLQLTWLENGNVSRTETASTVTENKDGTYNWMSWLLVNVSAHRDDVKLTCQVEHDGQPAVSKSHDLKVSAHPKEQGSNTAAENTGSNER

Binder | kdis [s⁻¹]
Antibody 28 (scFv, V domains shown) VH: QVQLVQSGAEVKKPGASVKVSCKASGYTFTSYNIHWVRQAPGQGLEWMGWISAYNGNTNYAQKLQGRVTMTRDTSTSTVYMELSSLRSEDTAVYYCALDGGQLGVAFDIWGQGTMVTVSS VL: DIQMTQSPSSLSASVGDRVTITCRASQGISNWLAWYQQKPGKAPKLLIYDASNLDAGVPSRFSGSGSGTDFTLTISSLQPEDFATYYCQQANSLPLTFGGGTKVEIK | > 0.01
Antibody 31 (scFv, V domains shown) VH: QVQLVQSGAEVKKPGASVKVSCKASGGTFRSYAISWVRQAPGQGLEWMGWMNPNSGNTGYAQKFQGRVTMTRDTSTSTVYMELSSLRSEDTAVYYCARESVLKGGMDVWGQGTTVTVSS VL: DIVMTQSPDSLAVSLGERATINCRSSQSLFHSSTNANNLAWYQQKPGQPPKLLIYWASTRESGVPDRFSGSGSGTDFTLTISSLQAEDVAVYYCQQYYITPLTFGQGTRLEIK | > 0.01
Antibody 37 (scFv, V domains shown) VH: QVQLVQSGAEVKKPGASVKVSCKASGYTLNNYDINWVRQAPGQGLEWMGWISGYNGNTNYAQKLQGRVTMTRDTSTSTVYMELSSLRSEDTAVYYCARVGSSWEENDQWGQGTLVTVSS VL: DIQMTQSPSSLSASVGDRVTITCRASQSISRWLAWYQQKPGKAPKLLIYAASSLESGVPSRFSGSGSGTDFTLTISSLQPEDFATYYCQQTHSFPLTFGGGTKVEIK | > 0.01
Antibody 11 (scFv, V domains shown) VH: QVQLVQSGAEVKKPGASVKVSCKASGYTFTSYDINWVRQAPGQGLEWMGWMNPNSGNTGYAQKFQGRVTMTRDTSTSTVYMELSSLRSEDTAVYYCAKGAVAGTYYYYGMDVWGQGTTVTVSS VL: DIQMTQSPSSLSASVGDRVTITCRASQTINNYLNWYQQKPGKAPKLLIYDASNLETGVPSRFSGSGSGTDFTLTISSLQPEDFATYYCQQANSFPLTFGQGTKVEIK | > 0.01
